From publication PMC3159463 come the findings set out here.

Where two headings read alike, the source gives them in different places.

The target in series [1] is pED208 TraM (plasmid pED208 (transfer-derepressed derivative of the Folac plasmid originally isolated from Salmonella typhi)) (UniProt P33788). Briefly: crystal structure.
Series [2] deals with T1, F TraM (F plasmid, UniProt P10026 1-127).
T1 sequence: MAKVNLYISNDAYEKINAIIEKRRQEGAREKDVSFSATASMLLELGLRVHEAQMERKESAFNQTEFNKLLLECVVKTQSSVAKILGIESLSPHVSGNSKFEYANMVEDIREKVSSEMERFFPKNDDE
Briefly: SEC-MALLS.

For series [3], the target named is T2, TraM[F1-55:pED208 56-127] chimera (F plasmid / plasmid pED208 chimera, UniProt P10026 1-55+P33788:56-127, internal_change).
T2 sequence: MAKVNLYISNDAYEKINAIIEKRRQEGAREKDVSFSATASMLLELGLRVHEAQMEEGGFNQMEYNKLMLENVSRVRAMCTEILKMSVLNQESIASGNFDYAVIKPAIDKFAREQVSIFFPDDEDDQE
The series can be described thus: EMSA.

Series [4] deals with T3, pED208 TraM (plasmid pED208 (IncFV, derivative of …, UniProt P33788 1-127)).
T3 sequence: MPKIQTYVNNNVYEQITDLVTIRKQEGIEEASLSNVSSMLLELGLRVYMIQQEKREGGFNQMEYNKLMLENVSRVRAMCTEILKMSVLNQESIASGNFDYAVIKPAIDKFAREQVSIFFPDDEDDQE
Briefly: EMSA.

Series [5] has as its target T4, pED208 TraM N-terminal domain (plasmid pED208, UniProt P33788 2-52).
T4 sequence: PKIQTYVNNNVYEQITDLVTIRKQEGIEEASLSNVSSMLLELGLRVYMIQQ
The series can be described thus: EMSA.

Series [6] addresses T1, F TraM. Briefly: SEC-MALLS. The source holds these as a separate data set.

Take “pED208 TraM (from UniProt P33788 1-127) (natural protein)”: in series [1], the stoichiometry N was 4.

B1: F sbmA 30 bp (dsDNA)
DNA 1: GATACCGCTAGGGGCGCTGCTAGCGGTGCG
DNA 2: CGCACCGCTAGCAGCGCCCCTAGCGGTATC
As to B1, the binding result in series [2] and in series [3] was “binds” in each case.

B2: pED208 sbmA 24 bp (pED 4site, palindromic) (dsDNA)
DNA 1: AGATTCGAATCTAGATTCGAATCT
DNA 2: AGATTCGAATCTAGATTCGAATCT
Consider B2, for which the Kd in series [4] turned out to be 4.8 ± 0.7 nM. For the same molecule, in series [5], the binding signal was ~500 fold lower affinity than full-length.

B3: F sbmAB 75 bp (dsDNA)
DNA 1: TTATATTAGGGGTGCTGCTAGCGGCGCGGTGTGTTTTTTTATAGGATACCGCTAGGGGCGCTGCTAGCGGTGCGT
DNA 2: ACGCACCGCTAGCAGCGCCCCTAGCGGTATCCTATAAAAAAACACACCGCGCCGCTAGCAGCACCCCTAATATAA
With B3, the binding result in series [6] is “binds”.
